Results on two molecules are retold here after patent US5747660A, “Nucleic acid encoding prostaglandin F2α receptor regulatory protein” (priority 1995, dated 1998).

“And” between values parts separate entries of the source, which are not always exact repeats. Identical values can stand only once. Like-named read-outs stand apart in the source and are kept apart here.

For data set [1], the target named is prostaglandin F2α receptor (FP). The settings on record: literature value; read-out: [^3 H]PGF2α binding affinity reported by Ito et al. (1994); cited from earlier work.
Data set [2] deals with prostaglandin F2α receptor (FP). Nature of the data set: Effect of intracellular messenger altering agents on [3H]PGF2α binding and on FPRP inhibition of it. It is filed as cell-based. The protocol:
In a third experiment, transfected cells were treated for 30 min with exposure to the following: phorbol 12-myristate 13-acetate 10^-8 M, prostaglandin E1, 10^-7 M, A23187 10^-6 M, okadaic acid 10^-6 M, or 8-Br-cAMP 10^-5 M (Table 4).
The effect of brefeldin A (3 μg/ml, 2 hr), chloroquine (100 μM, 6 hr) and tunicamysin (2.5 μg/ml, 20 hr) was determined.

For data set [3], the target named is prostaglandin F2α receptor (FP).
Experimental: [^3 H]PGF2α binding (DPM) was normalized to the average quantity of protein per culture dish (65 μg), and plotted against unlabeled PGF2α concentration.
For [^3 H]PGF2α binding experiments, the above electroporated cells were divided equally and cultured in six 35×10 mm culture dishes with 1.5 ml culture media each. […] Briefly, media was removed from the culture dishes, the dishes were washed 4 times in 1 L each of phosphate buffered saline (PBS, 10 mM phosphate), 150 mM NaCl, pH 7.0), and 0.35 ml of binding buffer (1×Hanks, 0.1% BSA, 2 mM MnCl2, 0.5 mM CaCl2, pH 6.0) containing either 2×10^-9 M [^3 H]PGF2α (total binding) or 2×10^-9 M [^3 H]PGF2α plus 2×10^-6 M unlabelled PGF2α (non-specific binding). The binding incubation was at 37° for 20 minutes. Following incubation, the binding buffer was removed, the dishes were washed 4 times in 1 L each of PBS, then 0.5 ml of 1.0M NaOH was added to each dish. Dishes were then incubated overnight at 37° C., the NaOH solution removed, neutralized with 0.5 ml of 1M HCL (made with 200 mM phosphate buffer pH 7.4), vortexed, and aliquots were analyzed for protein by the Bradford technique (1976) Anal. Biochem. 72:248-252, or analyzed for ^3 H content with a Beckman 6000 TA liquid scintillation counter (using Aquasol-2, New England Nuclear, Boston, Mass.; approximate counting efficiency 50-55%).
Saturation binding. A saturation binding experiment was performed to examine the effect of FPRP on FP. Scatchard analysis should discriminate between competitive and noncompetitive methods of FPRP action. [^3 H]PGF2α binding was assessed following transfection with either FP+pSG5 or FP+anti-sense FPRP (2 controls) and following transfection with FP+FPRP or FP+ dss FPRP (2 experimentals). Data are shown in FIG. 9A for unlabelled PGF2α inhibition of [^3 H]PGF2α binding and in FIG. 9B for the Scatchard transformation of this same data.
Data set [4] deals with prostaglandin F2α receptor (FP). The protocol: Models for FPRP interaction with FP were tested as follows. First, a conditioned media experiment was performed with either the pSGS vector, or the FPRP cDNA construct transfected into COS cells. Following plating and culture of these transfected cells for 24 hours the media in which the cells were grown was placed on cultures of cells transfected with FP. The cells transfected with FP and cultured with the conditioned medium for 4 hours were then analyzed for [^3 H]PGF2α binding. In a second experiment, FPRP or pSG5 were transfected as described above into one set of cells, FP alone into a second set of cells, and the cells co-cultured in the ratios shown in Table 3.
Briefly, COS cells were transfected with FP, pSG5, or FPRP, and plated. 24 h post transfection, media was removed from the pSG5 and FPRP transfected cultures, centrifuged 7 min at 1000×g, and added back to the FP culture media at the indicated ratios. Following 4 h of this media treatment, [^3 H]PGF2α binding was analyzed. As a control, FP and FPRP were cotransfected. For co-cultured cells, COS cells were transfected with FP, pSG5, or FPRP, mixed at a 1:1 ratio and cultured. As a control, cells were either transfected with FP or FP+FPRP.
This is another data set of the same source.

For data set [5] the test system is unchanged. The data set can be described thus: Cotransfection of a third construct along with FP and FPRP, [3H]PGF2α binding. It is filed as cell-based. The settings on record: FP + FPRP, no third construct; FP + pSG5 = 100. An excerpt: Therefore, a strategy based on cotransfection of a third construct (along with FP and FPRP) was pursued. These third party constructs included ones coding for the protease inhibitors alpha-l trypsin inhibitor and crmA, an inhibitor of cell death, bcl2, and few nonspecific control molecules including the vitamin D receptor, a secreted immunoglobulin molecule, and the empty parent vector pSG5 only. All groups and treatments were compared with control treatment of FP+pSG5 vs. FP+FPRP.

The test system is the same in data set [6]. As for the experimental part:
Cells transfected with either FP and pSG5 or FP and FPRP were plated in normal media containing serum and at either 21 h, 6 h or 0 h prior to [^3 H]PGF2α binding analysis had their media replaced with serum deficient medium, in order to obviate any effects due to hormones or factors present in the added serum.
This is another data set of the same source.

Data set [7] concerns COS cells (endogenous specific [3H]PGF2α binding). Nature of the data set: [3H]PGF2α binding to COS cell cultures transfected with FPRP cDNA construct alone. The class given is cell-based. The settings on record: COS cells transfected with FPRP cDNA construct only, 24 h. The protocol:
COS cells were electroporated, cultured for 24 h and analyzed for specific [^3 H]PGF2α binding. Total transfected DNA is indicated on the abscissa. Data points represent mean±standard deviation, n=3.
Methods. COS-1 cells were used for transient expression experiments. Briefly, 70-80% confluent cultures (grown in Ham's F-12 media plus 8% fetal bovine serum, with media replacement 24 hours prior to transfection)were harvested with a trypsin/EDTA solution (final concentration: 0.02% ethylenediaminetetracetic acid, 0.05% sodium bicarbonate, and 0.5% Enzart 40x trypsin), washed twice with culture media, then resuspended in ice cold culture media at approximately 1.66×10^7 cells per ml. Aliquots of 0.15 ml (2.5×10^6 cells) were placed in electroporation cuvettes (BioRad, Hercules, Calif.) along with plasmid DNA, placed on ice for 10 minutes, electroporated with a Bio Rad electroporater (settings: 250 μF, […], .infin..OMEGA., 0.4 cm cuvette), 1 ml of ice cold culture media was added and the cells were left on ice for 10 minutes before plating.
The binding incubation was at 37° for 20 minutes.

In data set [8] the test system is prostaglandin F2α receptor (FP). The data set can be described thus: [3H]PGF2α specific binding to COS cells cotransfected with FP cDNA and a test cDNA construct. The class given is cell-based, rat, mouse.
[9] abbreviates: control treatment (EtOH vehicle or Control), no agent.

Take `CCCCC[C@H](O)/C=C/[C@@H]1[C@@H](C/C=C\CCCC(=O)O)[C@@H](O)C[C@H]1O` [PGF2α, Prostaglandin F2α]: the Kd is 25 nM in [1] and 8 nM in data set [3] (read-out: [^3 H]PGF2α binding affinity, FP + pSG5, asFPRP, FPRP or dssFPRP: all 4 treatments similar). For the same molecule, in data set [2] (FP + FPRP transfected cells treated with the agent), the “% Control [^3 H]PGF2α Binding, FP + FPRP” value worked out at 40 ± 3%. The “% Control [^3 H]PGF2α Binding, FP + pSG5” value in data set [2] (FP + pSG5 transfected cells treated with the agent) was 73 ± 9%. Besides, the “effect of agent on basal [^3 H]PGF2α binding” value in data set [2] (FP transfected cells pretreated with the agent) is listed as “decreased subsequent basal FP binding”. Further, the “% Inhibition (FPRP inhibition of [^3 H]PGF2α binding)” value in [2] (in presence of the agent at the concentration/time given) is listed as 45%.

B1: FPRP: rat prostaglandin F2α receptor regulatory protein (SEQ ID NO:1), expressed from FPRP cDNA in pSG5, construct 232 (SEQ ID NO:10) (protein)
chain: MGRPAPRPLLLALLSLAVCRGRVVRVPAGTLVRVVGTELVIPCNVSDYDGPSEQNFDWSFSSSGSSFVELASTWEVGFPAQQYRERLQRGDILLRRTANDAVELHIKNVQPSDQGHYKCSTPSTDATVQGNYEDTMQVKVLADALVVGPSSRPPPGLSLREGEPFELRCIASTTSPLHTHLALRWELHRGPVHRSILALSHEGRFHPGPGYEQRYHSGDVRLDTVGSDAYRLSVARALSADQGSYRCVVSEWITEQGSWQEIQEKAVEVATVVIQPTALQLAVPRTVSVTEGKDLDLSCNITTDRVDDVRPEVTWYFKKTPDTSLLASHMLARLDRDSLVHSSPHVALSHVDTRSYHLLVRDVSKENSGYYLCLVALWAPGHNRSWHKVAEAMSAPSGVSVTWLEPEYQVYLNASKVPGFSDDPTELQCRVIDTKRVDAGVRLTVSWYYRMNRRNDDVVASELLAVMDGDWTLRYGERSKQRAQDGEFIFSKEHTDTFSFRIQRTTEEDRGSYYCVVSAWTRQRNSSWVKSKDVFSKPVNIFWASEDSVLVVKARQPKPFFAAGNTFEMTCKVSSKNIKSPRYSVLITAEKPVGDLSSPNETKYIISLDQDSVVKLENWTDASRVDGVVLEKVQEDEFRYRMYQTQVSDAGLYRCMVTAWSPIGGSLWREAATSLSNPIEIDFQTSGPIFNASVHSDTLSVTRGDLIKLFCIVTVDGAVLDPDDMAFDVSWFAVHSFGLDKAPILLSSLDRKGVVTTGQRDWKSTVSLERVSVLEFLLQVHGSEDQDFGNYYCSVTPWVRSPTGSWQREAEIHSRPIFITVKMDVLNAFKYPLLIGVGLSTVIRLLSCLIGYCSSHWCCKKEVRETRRERRRLMSMEMD
In the case of B1, in the data set on COS cells, the “decrease of viability of the transfected cells” value is on record as 20-60%. Also, the “% Control [^3 H]PGF2α Binding” value came out at 43 ± 5% in [4] (FP + FPRP cotransfection pos. control of the conditioned media experiment); 45 ± 3% in data set [4] (FP + FPRP cotransfection positive control of the co-culture experiment); 103 ± 10% in [4] (FP cells + 1:2 media from FPRP transfection, 4 h); 112 ± 10% in data set [4] (FP cells + 1:4 media from FPRP transfection, 4 h); 113 ± 11% in data set [4] (FP cells + 1:8 media from FPRP transfection, 4 h); 120 ± 10% in [4] (FP transfected cells co-cultured 1:1 with FPRP transfected cells). The “% Control [^3 H]PGF2α Binding” value was determined as 37 ± 5% in data set [5], 38 ± 7% in [6] (Serum Removal: t = 1 h), 48 ± 4% in data set [6] (Serum Removal: t = -6 h) and 41 ± 3% in data set [6] (Serum Removal: t = -21 h). The “ability to inhibit [^3 H]PGF2α binding to FP” value in data set [4] (conditioned media or co-culture type experiments) is “unable to inhibit”. The “% Control [^3 H]PGF2α Binding, FP + FPRP” value in [2] (setting [9]) was 52 ± 3% and 37 ± 3%. In addition, the “% Inhibition (FPRP inhibition of [^3 H]PGF2α binding)” value in data set [2] (setting [9]) is 48% and 63%. Also, the “effect of growth in serum deficient media on percent of FPRP inhibition” value in data set [6] (serum deficient medium 21 h, 6 h or 0 h prior to binding) was “did not alter”. The “effect of FPRP expression on [^3 H]PGF2α binding” value in [7] is “marked, dose dependent decrease”. In addition, the “inhibition of [^3 H]PGF2α binding to FP” value in data set [3] (saturation binding experiment, FP + FPRP cotransfection) is reported as “approximately 60%”. Moreover, in [3] (saturation binding, Scatchard analysis), the “type of inhibition of [^3 H]PGF2α binding” value is “non-competitive inhibitor”. The “% CONTROL, [^3 H]PGF2α specific binding” value in data set [8] (COS cells cotransfected with FP + the named DNA, FP alone = 100) is listed as 30-50%. In addition, the “inhibitory activity of FPRP on [^3 H]PGF2α binding” value in data set [8] (COS cells nearly 100% confluent, media replaced ≈48 h prior to transfection) is given as “approximately 60%”. Besides, the “% CONTROL [^3 H]PGF2α BINDING (FPRP inhibitory activity)” value in [8] (Standard: 80% confluent cells, 40 μg/dish post-electroporation, binding assay at 24 h) is 30-50%; in data set [8] (binding buffer of Weipz et al. (1992), pH 6.0), 53 ± 8%; in [8] (binding buffer: standard buffer pH 6.0), 41 ± 5%; in data set [8] (binding buffer: standard buffer pH 7.0) it was 45 ± 3%; in [8] (density of cells post-electroporation: 40 μg/dish), 40 ± 5%; in data set [8] (density of cells post-electroporation: 20-30 μg/dish), 30 ± 5%. Besides, the “% CONTROL [^3 H]PGF2α BINDING (FPRP inhibitory activity)” value is 43 ± 4% in data set [8] (density of cells post-electroporation: 60-80 μg/dish); 35 ± 3% in data set [8] (density of cells prior to electroporation: 60-70% confluent); 40 ± 5% in data set [8] (density of cells prior to electroporation: 80% confluent); 38 ± 4% in data set [8] (density of cells prior to electroporation: 100% confluent); 36 ± 3% in data set [8] (time between electroporation and binding: 24 hr); 33 ± 3% in data set [8] (time between electroporation and binding: 48 hr). The “effect on [^3 H]PGF2α binding to FP” value in data set [8] (cotransfection with rFP or mFP) is “inhibited rFP and mFP equally”.
